Some targets named below: hCXCR4 (human) (UniProt P61073); hCCR9 (human) (UniProt P51686); CCR6 (human) (UniProt P51684); hCCR10 (human) (UniProt P46092); hCXCR3 (human) (UniProt P49682); hCCR2b (human) (UniProt P41597); CCR4 (human) (UniProt P51679).
What all share (assay): cell-based or functional assay
Assay [1] deals with chemokine receptor CCR7 (human) (UniProt P32248).
Sequence of chemokine receptor CCR7 (human) (P32248 25-378): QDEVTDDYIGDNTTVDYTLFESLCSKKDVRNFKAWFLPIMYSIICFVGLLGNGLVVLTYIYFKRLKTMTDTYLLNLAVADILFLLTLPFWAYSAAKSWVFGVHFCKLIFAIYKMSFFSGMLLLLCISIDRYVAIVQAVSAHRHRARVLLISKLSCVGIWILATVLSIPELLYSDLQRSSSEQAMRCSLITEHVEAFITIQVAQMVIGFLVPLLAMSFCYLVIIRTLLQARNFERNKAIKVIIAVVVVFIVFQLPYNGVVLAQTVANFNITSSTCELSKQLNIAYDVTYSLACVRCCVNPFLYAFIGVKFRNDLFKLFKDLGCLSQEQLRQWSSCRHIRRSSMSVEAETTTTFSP

Sequence of hCXCR3 (human) (P49682 whole entry): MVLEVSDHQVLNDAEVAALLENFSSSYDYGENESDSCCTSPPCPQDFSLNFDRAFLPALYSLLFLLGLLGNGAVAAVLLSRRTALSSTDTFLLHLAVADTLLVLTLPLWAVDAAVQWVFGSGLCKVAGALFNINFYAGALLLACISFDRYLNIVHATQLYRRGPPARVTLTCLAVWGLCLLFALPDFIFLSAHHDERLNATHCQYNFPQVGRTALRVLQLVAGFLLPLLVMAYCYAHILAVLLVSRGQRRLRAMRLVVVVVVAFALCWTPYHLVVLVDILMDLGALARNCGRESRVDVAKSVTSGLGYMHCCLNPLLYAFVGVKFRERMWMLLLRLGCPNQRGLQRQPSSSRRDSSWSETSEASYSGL
Sequence of hCCR9 (human) (P51686 whole entry): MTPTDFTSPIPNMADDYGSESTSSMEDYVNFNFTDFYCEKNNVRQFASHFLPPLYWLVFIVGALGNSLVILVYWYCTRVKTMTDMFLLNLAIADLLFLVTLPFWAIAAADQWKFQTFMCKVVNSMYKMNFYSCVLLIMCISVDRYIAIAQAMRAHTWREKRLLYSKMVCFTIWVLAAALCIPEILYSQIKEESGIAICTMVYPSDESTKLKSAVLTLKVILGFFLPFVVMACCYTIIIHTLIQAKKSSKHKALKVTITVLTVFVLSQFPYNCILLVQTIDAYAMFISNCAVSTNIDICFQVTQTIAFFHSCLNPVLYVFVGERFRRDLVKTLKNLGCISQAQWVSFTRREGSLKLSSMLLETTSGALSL
Sequence of CCR4 (human) (P51679 whole entry): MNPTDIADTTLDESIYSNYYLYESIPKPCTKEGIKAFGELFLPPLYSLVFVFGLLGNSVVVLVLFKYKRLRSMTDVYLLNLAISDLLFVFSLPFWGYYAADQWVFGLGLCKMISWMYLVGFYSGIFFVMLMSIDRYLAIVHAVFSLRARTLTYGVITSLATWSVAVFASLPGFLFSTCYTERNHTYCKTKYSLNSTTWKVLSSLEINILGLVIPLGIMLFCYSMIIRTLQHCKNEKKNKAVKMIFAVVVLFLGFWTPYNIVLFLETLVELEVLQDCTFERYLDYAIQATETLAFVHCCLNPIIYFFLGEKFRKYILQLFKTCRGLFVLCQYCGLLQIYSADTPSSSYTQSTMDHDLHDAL
Sequence of CCR6 (human) (P51684 whole entry): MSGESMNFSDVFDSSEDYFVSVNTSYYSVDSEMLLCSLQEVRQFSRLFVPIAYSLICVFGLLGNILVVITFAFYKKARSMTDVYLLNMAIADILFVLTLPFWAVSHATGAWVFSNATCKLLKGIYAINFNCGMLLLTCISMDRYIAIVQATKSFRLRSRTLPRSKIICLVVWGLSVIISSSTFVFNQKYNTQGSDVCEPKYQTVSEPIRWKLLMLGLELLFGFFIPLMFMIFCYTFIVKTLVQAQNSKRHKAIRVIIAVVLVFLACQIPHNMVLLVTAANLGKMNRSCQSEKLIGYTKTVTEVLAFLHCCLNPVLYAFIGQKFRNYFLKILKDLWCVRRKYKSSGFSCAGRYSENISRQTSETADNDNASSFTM
Sequence of hCCR10 (human) (P46092 whole entry): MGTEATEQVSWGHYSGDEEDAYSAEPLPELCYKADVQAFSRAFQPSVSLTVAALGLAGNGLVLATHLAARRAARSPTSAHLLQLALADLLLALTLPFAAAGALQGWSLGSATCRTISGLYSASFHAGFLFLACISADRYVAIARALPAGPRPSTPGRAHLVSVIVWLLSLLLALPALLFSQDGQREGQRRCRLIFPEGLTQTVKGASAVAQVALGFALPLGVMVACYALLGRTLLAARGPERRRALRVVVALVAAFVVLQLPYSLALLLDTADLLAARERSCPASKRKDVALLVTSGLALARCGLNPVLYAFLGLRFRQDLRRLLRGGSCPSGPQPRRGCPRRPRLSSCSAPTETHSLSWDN
Sequence of hCXCR4 (human) (P61073 whole entry): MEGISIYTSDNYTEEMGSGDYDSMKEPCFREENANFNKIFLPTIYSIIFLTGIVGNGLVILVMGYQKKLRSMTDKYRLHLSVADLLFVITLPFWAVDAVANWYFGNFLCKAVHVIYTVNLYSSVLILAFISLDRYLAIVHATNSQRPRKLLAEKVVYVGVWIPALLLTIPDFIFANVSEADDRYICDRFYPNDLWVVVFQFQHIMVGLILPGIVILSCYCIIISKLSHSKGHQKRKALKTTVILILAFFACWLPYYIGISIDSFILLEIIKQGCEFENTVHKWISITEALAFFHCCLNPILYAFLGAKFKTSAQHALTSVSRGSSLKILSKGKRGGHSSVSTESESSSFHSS
Sequence of hCCR2b (human) (P41597 other isoform, or with tags, fused parts or gaps limits assumed): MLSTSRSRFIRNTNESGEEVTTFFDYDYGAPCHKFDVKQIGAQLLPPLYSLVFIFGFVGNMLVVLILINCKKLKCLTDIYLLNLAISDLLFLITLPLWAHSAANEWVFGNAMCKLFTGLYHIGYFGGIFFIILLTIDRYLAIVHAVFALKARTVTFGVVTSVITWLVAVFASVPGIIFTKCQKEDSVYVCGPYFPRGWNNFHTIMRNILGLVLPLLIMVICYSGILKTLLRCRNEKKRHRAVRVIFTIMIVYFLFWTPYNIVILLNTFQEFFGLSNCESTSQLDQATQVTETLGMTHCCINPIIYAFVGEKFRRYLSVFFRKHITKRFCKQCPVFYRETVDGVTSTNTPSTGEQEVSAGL

“biotinSDF-1α (CXCL12), SDF-1α derivatised at the ε-amino side chain functionality of Lys(64) with Biotin (from UniProt P48061 22-67) (ligand)” registered an EC50, agonist activity, Aequorin assay with hCXCR4 (human) of 17.3 nM.

As to “biotinTECK(Met to Nleu substitution) (CCL25), derivatised at the ε-amino side chain functionality of Lys72 with PEG-Biotin (from UniProt O15444 25-97) (ligand)”, the EC50, agonist activity, Aequorin assay in the assay with hCCR9 (human) turned out to be 63.6 nM.

With “biotinylated MIP-3alpha (from UniProt P78556 27-96) (ligand)”, the reduction of CCR6-expressing cells by the column (flow cytometry before and after passage) with CCR6 (human) was less than 15%.

The substance “recombinant native CTAC (from UniProt Q9Y4X3 25-112) (ligand)” came in with an EC50, agonist activity, Aequorin assay with hCCR10 (human) of 33.5 nM.

With “recombinant native IP-10 (from UniProt P02778 22-98) (ligand)”, the EC50, agonist activity, Aequorin assay with hCXCR3 (human) stood at 4.4 nM.

Turning to “recombinant native ITAC (from UniProt O14625 22-94) (ligand)”, the EC50, agonist activity, Aequorin assay with hCXCR3 (human) turned out to be 0.7 nM.

“recombinant native MCP-2 (from UniProt P80075 24-99) (ligand)”: in the assay with hCCR2b (human), the EC50, Aequorin assay (partial agonist) worked out at 23.5 nM.

On to “recombinant native MDC (from UniProt O00626 25-93) (ligand)”, for which the EC50, agonist activity, Aequorin assay with CCR4 (human) was determined as 3.6 nM.

On to “recombinant native MIP-3α (from UniProt P78556 27-96) (ligand)”, for which the EC50, agonist activity, Aequorin assay with CCR6 (human) turned out to be 1 nM.

“recombinant native MIP-3β (from UniProt Q99731 22-98) (ligand)”: in assay [1], the EC50, agonist activity, Aequorin assay amounted to 1.6 nM.

For “recombinant native TARC (from UniProt Q92583 24-94) (ligand)”, the EC50, agonist activity, Aequorin assay with CCR4 (human) was determined as 2.6 nM.

In the assay with hCCR9 (human), “recombinant native TECK (from UniProt O15444 24-150) (ligand)” gave an EC50, agonist activity, Aequorin assay of 67.9 nM.

The values are drawn from patent EP2717941B1.
